Assay results from the RNAGym collection of RNA variant scans (doi:10.1073/pnas.2313332121).

B1: TPR t1 (parent)
chain: GACCAAUCUGCCCUCAGAGCUCGAGAACAUCUUCGGAUGCAGAGGAGGCAGGCUUCGGUGGCGCGAUAGCGCCAACGUCCUCAACCUCCAAUGCAUCCCACCACAUGAUGAUGCCUGAAGAGCCUUGGUUUUUUG

Variants of: B1
Test: polymerase ribozyme fitness, log enrichment relative to wild type (log ratio); higher = more active; in vitro selection for triplet polymerase activity
Summary of the method: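 One round of in vitro selection, in triplicate, was applied to PCR-built, transcribed mutant libraries of each subunit of a heterodimeric triplet polymerase ribozyme. The steps were annealing with a biotinylated primer, partner subunit and triplets, incubation frozen at −7 °C, gel excision of extended constructs, streptavidin-bead capture and RT-PCR. Fitness is the logarithm, base 2, of genotype enrichment over wild-type enrichment from inverse-variance-weighted replicate averages of Illumina-sequenced inputs and outputs, keeping genotypes with ≥10 input reads and ≥1 read per output.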

| Variant | polymerase ribozyme fitness (log ratio) |
| --- | --- |
| G63U G120A | -0.542 |
| G69U C85G C99U A100C G110A | -5.56 |
| G63C C85A | -3.22 |
| G69A G93A A95C A121U | -3.33 |
| C64U C76A G120U | -5.9 |
| G69A C123G | -0.288 |
| G69A C123A | -1.81 |
| G69A C123U | -0.983 |
| G63C U78A G110U | -3.31 |
| G69A A74G | -5.42 |
| C62U U133G | -1.15 |
| G69U A119G | 1.7 |
| U67C G69A U81C C104A G110C U112C | -8.47 |
| A66C G113C | -3.98 |
| A66U C73U A83U A100U C123U U125G | -2.19 |
| C64A C88G | -6.08 |
| G63C G117C A119U | -4.1 |
| G63A U96G C124U | 0.174 |
| G63A C102U C114A | -6.03 |
| C64U A103G | -4.77 |
| C62U C123U | 1.47 |
| G69U C70G U87G G117A | -1.97 |
| G63A U126G U130G | -4.43 |
| C64U C70G C79U A111U U112A C124A | -5.81 |

| Variant | polymerase ribozyme fitness (log ratio) |
| --- | --- |
| G69C C89G C123A G135U | -4.06 |
| G63A G71A | -2.59 |
| C64U C99U | -2.88 |
| C64A A121C | -4.57 |
| G63C C88A | -1.08 |
| G63C C88U | -1.29 |
| G63A G93A | -1.38 |
| G63U U92A | -5.39 |
| C62U A84C C89A C123U | -1.62 |
| G63U C85U U130A | -2.02 |
| A68G G122A | -2.55 |
| G69C C97U | -2.66 |
| G69A G128C | -5.29 |
| A66U G93C C114G | -5.41 |
| G63A G128U | -3.07 |
| C62U C80U C97U | -0.921 |
| C62U C86A | -0.731 |
| C62U C86U | -0.567 |
| C64G U112A | -4.73 |
| C62U C89U | -0.519 |
| C64A U78C | -6.04 |
| C64A U78G | -6.68 |
| G69U A100U | -0.417 |
| A66U U130G | -1.71 |

| Variant | polymerase ribozyme fitness (log ratio) |
| --- | --- |
| C64A A66C U109C | -6.74 |
| G63U C102A | -3.78 |
| C62U C76G A83U C89G U116C U130G | -2.99 |
| C62U A95U C114U | -3.03 |
| G69A G113A G127C | -3.93 |
| G63A U78C A83G C88G | -3 |
| A66C C70A | -3.75 |
| C64U C72U A90C C104A A111G G127A G135A | -4.26 |
| G63C C85G U130G | -1.36 |
| G69A U78G A118U | -1.62 |
| G63C G117U G120A | -2.53 |
| A66U A83U | -1.4 |
| G63A C73U U130G | -0.938 |
| A66U C123A | 0.285 |
| G63C A66U G77C A91C C94A | -6.25 |
| G63C U92A | -4.04 |
| G63U G77C C86G | -4.32 |
| G63U C89U | -1.85 |
| C64U G135U | -0.52 |
| U67C C85U | -4.67 |
| C62U C114G | -3.11 |
| C62U C114U | -1.82 |
| G63A U78C G113A | -1.96 |
| A66U C73A C89U | -1.72 |

| Variant | polymerase ribozyme fitness (log ratio) |
| --- | --- |
| A68G G69C C82U G113A G128U | -4.89 |
| A66U U78C C124U | 0.592 |
| G69U A121G | 2.47 |
| G69U A121C | 2.82 |
| G63U A90U | -3.53 |
| G63A G107A | -6.55 |
| C62U C97G U132A | -3.9 |
| G69C U116C G120C | -0.894 |
| G69U C82U | -0.267 |
| G69U C82G | -1.46 |
| U67G C80G G113A | -6.86 |
| C64U U78C U96C C124U U126C U133G | -0.424 |
| G63C C79G | -0.109 |
| C62U U87C | -0.408 |
| C64A U78C U81G G120A | -6.42 |
| G63A C80A | -4.42 |
| C64A C73G | -6.34 |
| G65A C88U | -5.19 |
| G69C C72U | -0.189 |
| A66U C72U C115G | -2.47 |
| A66C A91U | -4.65 |
| C62U A121G | 2.41 |
| G63C C85U A111C G122C | -3.75 |
| A66G U116C | -2.62 |

| Variant | polymerase ribozyme fitness (log ratio) |
| --- | --- |
| G63C G77C | -2.42 |
| G69C C101G | -3.84 |
| G69C U106A G120U G128U | -2.78 |
| C64G U78C C115A | -5.99 |
| G63A U131G G135U | -0.787 |
| G69C G120U | -0.245 |
| G63C C94A | -1.52 |
| C62U U129G | -1.28 |
| C62U U129C | 0.0239 |
| C62U U125G G127C | -1.39 |
| A68C U116A A119U C124U | -7.83 |
| G63A A84U C86A U125G | -2.61 |
| G69U C72A | -2.5 |
| G69U C79G U109G | -2.86 |
| C64A U87A | -6.3 |
| G69C C88A | -2.15 |
| G63A U112C | 0.988 |
| G63U G113A G128U | -4.06 |
| G69U C89G U106A G120C G122C | -1.79 |
| C64U C114U | -1.47 |
| C64U C114A | -1.4 |
| A68U G117C | -6.92 |
| G63A G93U C98U A121G | -0.418 |
| A66G | -0.466 |

| Variant | polymerase ribozyme fitness (log ratio) |
| --- | --- |
| A66U | -0.954 |
| A66C | -1.32 |
| C64U C82U A95G | -0.455 |
| G63A U87G A111C | -1.52 |
| G63U C88A | -1.89 |
| C62U G110U | -1.14 |
| G63U G128A | -3.29 |
| G63A G110C C115G G120U | -7.28 |
| C62U C73U C79U C80U U112A | -3.4 |
| G69A C86G A121U | -1.34 |
| G63C G128C | -3.04 |
| G63U U78C A108G | -6.17 |
| A68U C97A G120C | -6.59 |
| C62U C97A | -5.14 |
| C64U G71U C88U | -5.13 |
| C62U | -0.118 |
| A68C A84U U112G G117C | -7.28 |
| A66U U125A | -2.11 |
| C64U U78G | -0.112 |
| A66U C79U | -0.834 |
| G63C U116C | -1.29 |
| G63A U106G | -2.57 |
| G63A U106A | -1.29 |
| C64G C89U C123U | -5.79 |

| Variant | polymerase ribozyme fitness (log ratio) |
| --- | --- |
| A66G G127U | -1.49 |
| G63U C89A G113A G120C U129G | -5.25 |
| A66U C114A | -3.05 |
| G69A U116G | -4.55 |
| C64U A95G | -1.52 |
| A68G C82U | -2.87 |
| G63A G122A | -1.62 |
| G69U C72U G117A | -0.708 |
| G69C G120U C123G | -0.319 |
| A68G U106A | -3.22 |
| G69C U78C A84C | -2.73 |
| A66C U129A | -2.92 |
| U67A C123U | -5.81 |
| A66G C79G G120A | -3.49 |
| C64U C73A U131A | -0.288 |
| C62U C72U | -1.03 |
| G69A C102A U112G U132A | -5.6 |
| C64U C72U U106G G127C | -2.97 |
| C64U G127C | -1.82 |
| G63C G117C C123G | -2.31 |
| C62U A83G | -1.18 |
| C62U C124U | 0.977 |
| G63A G93A G120U | -1.07 |
